Source: patent US20250257368A1 (FLAGSHIP PIONEERING INNOVATIONS V, published 2025)

Target: the molecule itself
Test: self-assembly into virus-like particles, negative staining electron microscopy

B1: Ring2 ORF1 protein expressed as a full-length protein in insect cells (other)
chain: MPYYYRRRRYNYRRPRWYGRGWIRRPFRRRFRRKRRVRPTYTTIPLKQWQPPYKRTCYIKGQDCLIYYSNLRLGMNSTMYEKSIVPVHWPGGGSFSVSMLTLDALYDIHKLCRNWWTSTNQDLPLVRYKGCKITFYQSTFTDYIVRIHTELPANSNKLTYPNTHPLMMMMSKYKHIIPSRQTRRKKKPYTKIFVKPPPQFENKWYFATDLYKIPLLQIHCTACNLQNPFVKPDKLSNNVTLWSLNTISIQNRNMSVDQGQSWPFKILGTQSFYFYFYTGANLPGDTTQIPVADLLPLTNPRINRPGQSLNEAKITDHITFTEYKNKFTNYWGNPFNKHIQEHLDMILYSLKSPEAIKNEWTTENMKWNQLNNAGTMALTPFNEPIFTQIQYNPDRDTGEDTQLYLLSNATGTGWDPPGIPELILEGFPLWLIYWGFADFQKNLKKVTNIDTNYMLVAKTKFTQKPGTFYLVILNDTFVEGNSPYEKQPLPEDNIKWYPQVQYQLEAQNKLLQTGPFTPNIQGQLSDNISMFYKFYFKWGGSPPKAINVENPAHQIQYPIPRNEHETTSLQSPGEAPESILYSFDYRHGNYTTTALSRISQDWALKDTVSKITEPDRQQLLKQALECLQISEETQEKKEKEVQQLISNLRQQQQLYRERIISLLKDQ
notes: also called Anellovirus ORF1 protein
  binding result: binds
